Data: publication PMC314469, “Protein Interaction Networks by Proteome Peptide Scanning” (PLoS Biology, 2004)

T1: Abp1 SH3 (ABP1_YEAST), P15891
T1 chain: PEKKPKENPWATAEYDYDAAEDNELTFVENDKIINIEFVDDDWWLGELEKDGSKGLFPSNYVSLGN


Molecular target: T1, Abp1 SH3 (ABP1_YEAST), P15891
Test: SPOT array

| Binder | normalised SPOT signal, Boehringer light units (BLU); mean over the file's lines of this peptide |
| --- | --- |
| YKVYFSTPRDVKP [YBR024W 225-237] | 114 |
| YLNESFVMQQPIKP [YGR067C 417-430] | 179 |
| YFTSSYFPDDRRP [YKL004W 102-114] | 304 |
| WTLNKDKIAHPVRP [YBR276C 624-637] | 1090 |
| YDVIEVVPEPGKP [YDR301W 1057-1069] | 37 |
| YPQMLALPIARRP [YBL022C 179-191] | 8030 |
| YRVYFSTPPNVKP [YBR037C 219-231] | 138 |
| YAEILKNRMNPEKP [YBL034C 847-860] | 100 |
| WSIKLWDLSKPSKP [YAR003W 94-107] | 135 |
| YYRLDALPKDGKP [YGL245W 693-705] | 219 |
| AGGGIWGPMEKKP [YHR093W 43-55] | 120 |
| YVTFTTIPYKEKP [YCL058C 12-24] | 70.4 |
| AAPNSNVPTNERP [YGL122C 485-497] | 146 |
| AAAAPPLPSDVRP [YDR159W 245-257] | 60.6 |
| YNPYGISPNHARP [YJR059W 184-196] | 223 |
| AAYNAKKAAKPAKP [YAL003W 104-117] | 109 |

| Binder | normalised SPOT signal, Boehringer light units (BLU); mean over the file's lines of this peptide |
| --- | --- |
| YKWTVPAPVGPRP [YHR158C 222-234] | 1300 |
| YNESAPLQPFPERP [YFL041W 454-467] | 15.5 |
| AIAYDNAPYSPKP [YGL008C 735-747] | 173 |
| YYNDLSYYLRPIKP [Q0115 375-388] | 128 |
| YKWTIPQPIGRRP [YGR238C 182-194] | 3200 |
| YQKTFKLPWDPRP [YBL086C 310-322] | 155 |
| YTNMNSLVATPMKP [YHR015W 541-554] | 145 |
| YTPTSSQPRPPPRP [YGR268C 67-80] | 532 |
| AIDPPRRPHNVKP [YCL048W 27-39] | 2120 |
| YIRNAVKENFPEKP [YBR137W 45-58] | 118 |
| YKPWSAWSYLPPKP [YDL035C 229-242] | 208 |
| AIIYHHKAGDPFKP [YGR276C 328-341] | 155 |
| ADQRKLFPNWIKP [YHR165C 1003-1015] | 456 |
| WRSKRIEQLFPVRP [YDL150W 191-204] | 201 |
| AIKSIYSPSDKRP [YBR229C 581-593] | 351 |
| YEHLTSVKIVPQRP [YAL054C 40-53] | 113 |

More lines, now with the values ahead:

| normalised SPOT signal, Boehringer light units (BLU); mean over the file's lines of this peptide | Binder |
| --- | --- |
| 132 | AIIDRIPPPTGRP [YLR289W 219-231] |
| 275 | YNYSFQFDKFPRKP [YLR392C 110-123] |
| 179 | YASPMYDFLYPFRP [YOR002W 18-31] |
| 112 | ASVEQFDLKMPSKP [YLR055C 485-498] |
| 34.2 | YASALKEMTHPIKP [YLR239C 24-37] |
| 140 | YDNKVEEGSKPKKP [YOR168W 668-681] |
| 1840 | YSRQAIPPPVPNRP [YLR144C 3-16] |
| 1240 | WRYLPAPPVSIRP [YOR116C 258-270] |
| 94.4 | AHLSAADPDFYKP [YOR153W 112-124] |
| 160 | AEGNVKPWNPPQKP [YLR295C 56-69] |
| 311 | YFPSKTVGSHPRKP [YPL162C 135-148] |
| 233 | AGPKPSISLVPDKP [YLR189C 14-27] |
| 243 | AAVPTKTIASPQRP [YOR227W 52-65] |
| 144 | YYSASPLPASKRP [YMR108W 43-55] |
| 164 | YKDSFYKEMTPSKP [YOR177C 24-37] |
| 82.3 | YYVLNPNNKQPIKP [YNL076W 85-98] |
| 62.3 | YEATPFDPITVKP [YNL330C 3-15] |
| 182 | AAADSVSPDSQRP [YLL027W 53-65] |
| 61.8 | ADDSFIFPDEDKP [YNL103W 152-164] |
| 211 | YYVSKRVPVKNRP [YNL023C 118-130] |
| 140 | YTDNDDYPELDRP [YOR292C 157-169] |
| 86.6 | AAELGNNALPPTKP [YNR046W 63-76] |
| 27.3 | AGDDEPGADEPARP [YOL073C 298-311] |
| 59.8 | YYRELLSFLSPGKP [YML005W 156-169] |
| 64 | YRLLRLLPHASRP [YOR267C 685-697] |
| 45.6 | AAAPDVKPHDTKP [YPR125W 432-444] |
